According to publication PMC7327492:

Legend:
Recombinant B56α = Recombinant B56α (UniProt Q15172); assay: ITC; purified full-length recombinant B56α and synthetic ADAM17 peptides
YFP-FoxO3 L-C = assay: co-IP; YFP-FoxO3 constructs transfected into HeLa cells, purified using YFP resin, PP2A-B56 binding determined by Western blotting
YFP-FoxO3 I-C = assay: as above
YFP-FoxO3 H-C = assay: as above

Chain of PP2A-B56 (endogenous holoenzyme of HeLa cells) (Q15172 whole entry): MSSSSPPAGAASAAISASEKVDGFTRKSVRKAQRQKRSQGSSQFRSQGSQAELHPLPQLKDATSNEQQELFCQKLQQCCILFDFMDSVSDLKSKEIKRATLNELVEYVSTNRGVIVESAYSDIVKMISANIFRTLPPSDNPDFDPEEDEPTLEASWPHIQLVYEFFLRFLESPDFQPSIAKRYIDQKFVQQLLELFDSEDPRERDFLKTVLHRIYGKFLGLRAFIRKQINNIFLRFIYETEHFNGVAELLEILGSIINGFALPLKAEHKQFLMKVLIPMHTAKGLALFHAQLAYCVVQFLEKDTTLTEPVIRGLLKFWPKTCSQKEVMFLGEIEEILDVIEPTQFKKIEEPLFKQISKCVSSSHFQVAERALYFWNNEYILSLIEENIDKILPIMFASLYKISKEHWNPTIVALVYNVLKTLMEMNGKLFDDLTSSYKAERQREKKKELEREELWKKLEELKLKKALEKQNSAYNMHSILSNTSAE
Chain of PP2A-B56 (endogenous holoenzyme of HeLa cells) (P30153 whole entry): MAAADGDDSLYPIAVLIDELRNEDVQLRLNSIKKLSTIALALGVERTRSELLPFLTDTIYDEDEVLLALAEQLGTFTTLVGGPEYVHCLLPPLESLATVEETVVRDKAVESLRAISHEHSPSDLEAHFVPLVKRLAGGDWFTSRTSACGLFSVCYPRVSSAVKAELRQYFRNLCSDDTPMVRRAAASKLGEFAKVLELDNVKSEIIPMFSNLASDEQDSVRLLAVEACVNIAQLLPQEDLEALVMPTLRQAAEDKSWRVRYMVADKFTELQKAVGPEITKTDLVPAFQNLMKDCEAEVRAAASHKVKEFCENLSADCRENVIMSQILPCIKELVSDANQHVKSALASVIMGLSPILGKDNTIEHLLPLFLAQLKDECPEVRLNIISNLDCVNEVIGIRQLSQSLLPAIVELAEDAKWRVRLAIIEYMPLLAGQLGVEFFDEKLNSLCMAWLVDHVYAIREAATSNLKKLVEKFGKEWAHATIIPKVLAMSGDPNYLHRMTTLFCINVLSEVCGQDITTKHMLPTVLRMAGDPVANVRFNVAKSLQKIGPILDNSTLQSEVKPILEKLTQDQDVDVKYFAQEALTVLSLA
Chain of PP2A-B56 (endogenous holoenzyme of HeLa cells) (P67775 whole entry): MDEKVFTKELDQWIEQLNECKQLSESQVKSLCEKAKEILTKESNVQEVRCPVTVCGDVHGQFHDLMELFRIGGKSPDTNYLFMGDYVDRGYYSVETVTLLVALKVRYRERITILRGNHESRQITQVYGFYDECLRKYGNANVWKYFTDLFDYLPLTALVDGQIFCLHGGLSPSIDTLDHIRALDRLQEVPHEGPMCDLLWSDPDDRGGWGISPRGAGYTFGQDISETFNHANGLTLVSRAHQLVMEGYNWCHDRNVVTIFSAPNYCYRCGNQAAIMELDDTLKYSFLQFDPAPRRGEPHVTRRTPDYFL

Row | Substance | Kd (Recombinant B56α) [nM] | fold PP2A-B56 bound against wt FoxO3 (YFP-FoxO3 L-C) [fold] | fold PP2A-B56 bound against wt FoxO3 (YFP-FoxO3 I-C) [fold] | fold PP2A-B56 bound against wt FoxO3 (YFP-FoxO3 H-C) [fold]
1 | synthetic ADAM17 peptide engineered for optimal binding (LDTIQEEE) | 900 | – | – | –
2 | PP2A-B56 (endogenous holoenzyme of HeLa cells) (from UniProt Q15172 1-486; P30153 1-589; P67775 1-309) (complex) | – | 0.5 | 4 | 10
